Test results reported in the Human Domainome abundance scans (Beltran et al. 2025).
± gives the uncertainty stated by the source.

assay: abundance fitness (aPCA) (normalised: wild type 0, dead -1); higher = more abundant; growth selection in yeast, the domain comes from the species named; conditions: Homo sapiens

Point of comparison: “DnaJ homolog subfamily B member 1 G10V, P25685”, abundance fitness -0.606 ± 0.087. Against it:
- DnaJ homolog subfamily B member 1 F45E, P25685 — higher, -0.277 ± 0.095
- DnaJ homolog subfamily B member 1 F45G, P25685 — higher, -0.247 ± 0.089
- DnaJ homolog subfamily B member 1 F45H, P25685 — higher, -0.096 ± 0.17
- DnaJ homolog subfamily B member 1 F45I, P25685 — higher, -0.158 ± 0.07
- DnaJ homolog subfamily B member 1 F45K, P25685 — within error, -0.444 ± 0.16
- DnaJ homolog subfamily B member 1 F45L, P25685 — higher, -0.21 ± 0.055
- DnaJ homolog subfamily B member 1 F45M, P25685 — higher, -0.305 ± 0.092
- DnaJ homolog subfamily B member 1 F45N, P25685 — higher, -0.221 ± 0.1
- DnaJ homolog subfamily B member 1 F45P, P25685 — within error, -0.508 ± 0.072
- DnaJ homolog subfamily B member 1 F45Q, P25685 — higher, -0.211 ± 0.11
- DnaJ homolog subfamily B member 1 F45R, P25685 — higher, -0.185 ± 0.062
- DnaJ homolog subfamily B member 1 F45S, P25685 — higher, -0.143 ± 0.085
- DnaJ homolog subfamily B member 1 F45T, P25685 — higher, -0.281 ± 0.075
- DnaJ homolog subfamily B member 1 F45V, P25685 — higher, -0.306 ± 0.061
- DnaJ homolog subfamily B member 1 F45W, P25685 — higher, 0 ± 0.099
- DnaJ homolog subfamily B member 1 F45Y, P25685 — higher, -0.178 ± 0.17
- DnaJ homolog subfamily B member 1 F64A, P25685 — within error, -0.361 ± 0.3
- DnaJ homolog subfamily B member 1 F64Q, P25685 — within error, -0.344 ± 0.28
- DnaJ homolog subfamily B member 1 F64S, P25685 — higher, -0.109 ± 0.23
- DnaJ homolog subfamily B member 1 F64Y, P25685 — higher, 0.009 ± 0.48
- DnaJ homolog subfamily B member 1 G10C, P25685 — within error, -0.587 ± 0.26
- DnaJ homolog subfamily B member 1 G10D, P25685 — higher, -0.141 ± 0.074
- DnaJ homolog subfamily B member 1 G10E, P25685 — higher, 0.073 ± 0.2
- DnaJ homolog subfamily B member 1 G10F, P25685 — within error, -0.542 ± 0.13
- DnaJ homolog subfamily B member 1 G10H, P25685 — higher, -0.378 ± 0.14
- DnaJ homolog subfamily B member 1 G10I, P25685 — within error, -0.756 ± 0.19
- DnaJ homolog subfamily B member 1 G10K, P25685 — higher, -0.108 ± 0.1
- DnaJ homolog subfamily B member 1 G10L, P25685 — higher, -0.223 ± 0.058
- DnaJ homolog subfamily B member 1 G10M, P25685 — higher, -0.191 ± 0.085
- DnaJ homolog subfamily B member 1 G10N, P25685 — within error, -0.333 ± 0.25
- DnaJ homolog subfamily B member 1 G10P, P25685 — lower, -0.926 ± 0.21
- DnaJ homolog subfamily B member 1 G10Q, P25685 — higher, -0.048 ± 0.083
- DnaJ homolog subfamily B member 1 G10R, P25685 — higher, -0.239 ± 0.066
- DnaJ homolog subfamily B member 1 G10S, P25685 — higher, -0.163 ± 0.061
- DnaJ homolog subfamily B member 1 G10T, P25685 — within error, -0.564 ± 0.16
- DnaJ homolog subfamily B member 1 G10W, P25685 — within error, -0.704 ± 0.12
- DnaJ homolog subfamily B member 1 G10Y, P25685 — within error, -0.658 ± 0.12
- DnaJ homolog subfamily B member 1 G14A, P25685 — higher, -0.353 ± 0.13
- DnaJ homolog subfamily B member 1 G14C, P25685 — higher, -0.266 ± 0.12
- DnaJ homolog subfamily B member 1 G14E, P25685 — higher, -0.192 ± 0.078
